Reference: publication doi:10.1101/536094 (bioRxiv, 2019)
Where “and” joins values, the source holds several entries; their conditions need not be identical. Equal values may be shown once.

Legend:
[1] = target: Chlamydomonas reinhardtii CaMKII hub domain (Chlamydomonas reinhardtii); assay: crystal structure
[2] = target: Chlamydomonas reinhardtii CaMKII hub domain (Chlamydomonas reinhardtii); assay: native MS
[3] = target: Gonium pectoral CaMKII hub domain (Gonium pectoral); assay: native MS
[4] = target: Volvox carteri f. nagarensis CaMKII hub domain (Volvox carteri f. nagarensis); assay: native MS
native MS = target: the molecule itself; assay: native MS
crystal structure = target: the molecule itself; assay: crystal structure

Work on “Chlamydomonas reinhardtii CaMKII hub domain (domain or fragment)” yielded a stoichiometry N [1] of 18 subunits and a stoichiometry N [2] of 18 subunits.

“Gonium pectoral CaMKII hub domain (domain or fragment)” was tested, and the stoichiometry N [3] was 16 subunits and 18 subunits.

“Volvox carteri f. nagarensis CaMKII hub domain (domain or fragment)” was tested, and the stoichiometry N [4] was 18 subunits and 20 subunits.

B1: wild-type human CaMKII-α hub domain (domain or fragment, UniProt Q9UQM7 345-475, looked up)
chain: VRKQEIIKVTEQLIEAISNGDFESYTKMCDPGMTAFEPEALGNLVEGLDFHRFYFENLWSRNSKPVHTTILNPHIHLMGDESACIAYIRITQYLDAGGIPRTAQSEETRVWHRRDGKWQIVHFHRSGAPSV
B1 was tested, and the “stoichiometry N” value (native MS) was 12 subunits and 14 subunits.

B2: six-mutant human CaMKII-α hub domain (domain or fragment, UniProt Q9UQM7 345-475, looked up)
chain: VRKQEIIKVNQQLIEAISNGDFESYTKMCDPGMTAFEPEALGNLVEGLDFHRFYFENLWSRNSKPVHNTMLNPHIHLMGDESACIAYIRITQYLDAGGIPRTAQSEETRVWHRRDGKWQHVHMHRSGAPSV
For B2, the “stoichiometry N” value (crystal structure) was 14 subunits and the “stoichiometry N” value (native MS) was 16 subunits.
